The values below come from US20190077860A1 (EISAI R AND D MANAGEMENT, published 2019).

Numbering of substitutions follows the chain as printed.

T1: human EphA6 extracellular region-SEAP-His protein (human, UniProt Q9UF33 23-550)
T1 construct: extracellular domain; also called hEphA6-SEAP-His
T1 sequence (looked up): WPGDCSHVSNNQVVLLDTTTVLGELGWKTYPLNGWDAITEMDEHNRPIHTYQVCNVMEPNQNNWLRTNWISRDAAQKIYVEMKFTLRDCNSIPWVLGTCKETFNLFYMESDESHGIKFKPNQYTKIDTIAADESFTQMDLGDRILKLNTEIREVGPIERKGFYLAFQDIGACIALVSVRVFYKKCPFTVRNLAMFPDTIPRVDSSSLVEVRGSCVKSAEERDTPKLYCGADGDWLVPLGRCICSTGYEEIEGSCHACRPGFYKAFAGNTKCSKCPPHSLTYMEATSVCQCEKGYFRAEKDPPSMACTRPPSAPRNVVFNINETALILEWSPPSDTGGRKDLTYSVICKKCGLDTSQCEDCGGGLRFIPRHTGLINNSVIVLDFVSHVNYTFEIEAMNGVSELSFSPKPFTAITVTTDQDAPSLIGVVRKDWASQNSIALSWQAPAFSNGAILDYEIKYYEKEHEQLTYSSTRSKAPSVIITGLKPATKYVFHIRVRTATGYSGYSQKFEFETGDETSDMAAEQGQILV

T2: human EphA8 extracellular region-SEAP-His protein (human, UniProt P29322 28-542)
T2 construct: extracellular domain; also called hEphA8-SEAP-His
T2 sequence (looked up): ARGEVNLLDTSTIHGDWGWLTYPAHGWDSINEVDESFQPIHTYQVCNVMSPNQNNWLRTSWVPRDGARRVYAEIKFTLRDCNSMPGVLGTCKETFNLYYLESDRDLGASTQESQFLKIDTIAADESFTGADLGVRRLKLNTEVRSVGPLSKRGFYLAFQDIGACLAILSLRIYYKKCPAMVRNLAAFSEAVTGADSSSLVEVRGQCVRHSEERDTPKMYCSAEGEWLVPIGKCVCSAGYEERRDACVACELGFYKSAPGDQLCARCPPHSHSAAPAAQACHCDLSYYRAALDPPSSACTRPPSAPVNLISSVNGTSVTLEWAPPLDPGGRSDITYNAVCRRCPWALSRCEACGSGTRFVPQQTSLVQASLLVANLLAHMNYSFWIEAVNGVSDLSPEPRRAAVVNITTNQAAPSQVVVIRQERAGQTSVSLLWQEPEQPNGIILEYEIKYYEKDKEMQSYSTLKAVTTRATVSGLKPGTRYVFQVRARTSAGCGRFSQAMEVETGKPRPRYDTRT

T3: human EphA10 extracellular region-SEAP-His protein (human, UniProt Q5JZY3 34-565)
T3 construct: extracellular domain; also called hEphA10-SEAP-His
T3 sequence (looked up): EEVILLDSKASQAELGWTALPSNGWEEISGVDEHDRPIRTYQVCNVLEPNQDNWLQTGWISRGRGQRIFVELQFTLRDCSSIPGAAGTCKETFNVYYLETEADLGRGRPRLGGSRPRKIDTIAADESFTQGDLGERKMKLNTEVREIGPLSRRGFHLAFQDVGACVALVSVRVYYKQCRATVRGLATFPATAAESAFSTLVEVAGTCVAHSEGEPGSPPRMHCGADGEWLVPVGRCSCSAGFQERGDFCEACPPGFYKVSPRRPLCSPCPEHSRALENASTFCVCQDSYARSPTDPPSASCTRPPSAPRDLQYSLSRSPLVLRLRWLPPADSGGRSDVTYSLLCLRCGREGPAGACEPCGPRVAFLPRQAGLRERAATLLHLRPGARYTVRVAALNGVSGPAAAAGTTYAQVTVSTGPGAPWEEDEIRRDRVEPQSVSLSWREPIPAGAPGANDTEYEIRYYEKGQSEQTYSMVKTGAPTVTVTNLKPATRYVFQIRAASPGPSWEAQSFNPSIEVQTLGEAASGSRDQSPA

T4: human EphB2 extracellular region-SEAP-His protein (human, UniProt P29323 19-543)
T4 construct: extracellular domain; also called hEphB2-SEAP-His
T4 sequence (looked up): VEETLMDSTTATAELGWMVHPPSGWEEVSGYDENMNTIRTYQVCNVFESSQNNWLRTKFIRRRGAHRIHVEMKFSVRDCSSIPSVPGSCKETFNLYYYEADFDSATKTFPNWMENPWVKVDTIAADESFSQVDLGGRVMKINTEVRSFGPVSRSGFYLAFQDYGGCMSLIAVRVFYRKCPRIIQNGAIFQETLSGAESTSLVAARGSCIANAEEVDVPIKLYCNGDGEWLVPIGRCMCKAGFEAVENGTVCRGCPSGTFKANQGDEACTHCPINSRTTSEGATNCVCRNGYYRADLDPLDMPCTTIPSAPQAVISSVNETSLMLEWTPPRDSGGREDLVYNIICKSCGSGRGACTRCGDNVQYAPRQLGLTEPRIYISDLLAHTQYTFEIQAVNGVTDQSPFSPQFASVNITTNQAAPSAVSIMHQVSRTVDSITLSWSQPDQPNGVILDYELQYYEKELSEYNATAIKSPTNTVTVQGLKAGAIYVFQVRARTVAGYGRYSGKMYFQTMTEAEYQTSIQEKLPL

B1: humanized antibody No. 134 (antibody, human IgG2)
heavy: QVQLVQSGSELKKPGASVKVSCKASGYTFTDYSMHWVRQAPGQGLKWMGWINTETGEPTYAQGFTGRFVFSLDTSVSTAYLQISSLKAEDTAVYYCARIPLYYYGSRYWYFDVWGQGTTVTVSSASTKGPSVFPLAPSSRSTSESTAALGCLVKDYFPEPVTVSWNSGALTSGVHTFPAVLQSSGLYSLSSVVTVPSSNFGTQTYTCNVDHKPSNTKVDKTVERKSCVECPPCPAPPAAAPSVFLFPPKPKDTLMISRTPEVTCVVVDVSHEDPEVQFNWYVDGVEVHNAKTKPREEQFNSTFRVVSVLTVVHQDWLNGKEYKCKVSNKGLPAPIEKTISKTKGQPREPQVYTLPPSREEMTKNQVSLTCLVKGFYPSDIAVEWESNGQPENNYKTTPPMLDSDGSFFLYSKLTVDKSRWQQGNVFSCSVMHEALHNHYTQKSLSLSPG
light: EIVMTQSPATLSVSPGERATLSCRASENIYRNLAWYQQKPGQSPRLLIYAATNLADGIPARFSGSGSGTEYTLTISSLQSEDFAVYYCQHFWGTPWTFGQGTKVEIKRTVAAPSVFIFPPSDEQLKSGTASVVCLLNNFYPREAKVQWKVDNALQSGNSQESVTEQDSKDSTYSLSSTLTLSKADYEKHKVYACEVTHQGLSSPVTKSFNRGEC
notes: human Ig kappa; also called L2-4/HA2
B2: humanized antibody No. 94 (antibody, human IgG1, kappa)
heavy: QVQLVQSGSELKKPGASVKVSCKASGYTFTDYSMHWVRQAPGQGLKWMGWINTETGEPTYAQGFTGRFVFSLDTSVSTAYLQISSLKAEDTAVYYCARIPLYYYGSRYWYFDVWGQGTTVTVSSASTKGPSVFPLAPSSKSTSGGTAALGCLVKDYFPEPVTVSWNSGALTSGVHTFPAVLQSSGLYSLSSVVTVPSSSLGTQTYICNVNHKPSNTKVDKRVEPKSCDKTHTCPPCPAPPAAAPSVFLFPPKPKDTLMISRTPEVTCVVVDVSHEDPEVQFNWYVDGVEVHNAKTKPREEQFNSTFRVVSVLTVVHQDWLNGKEYKCKVSNKGLPAPIEKTISKTKGQPREPQVYTLPPSREEMTKNQVSLTCLVKGFYPSDIAVEWESNGQPENNYKTTPPMLDSDGSFFLYSKLTVDKSRWQQGNVFSCSVMHEALHNHYTQKSLSLSPG
light: B1 light
notes: as for B1
B3: humanized antibody No. 135 (antibody, human IgG2)
heavy: B1 heavy with K46E, Q62D, G63D, T65K
light: B1 light
notes: human Ig kappa; also called L2-4/HK1
B4: humanized antibody No. 137 (antibody, human IgG2)
heavy: B1 heavy with V2I, Q62D, G63D, T65K
light: B1 light
notes: human Ig kappa; also called L2-4/HK4
B5: humanized antibody No. 95 (antibody, human IgG1, kappa)
heavy: B2 heavy with K46E, Q62D, G63D, T65K
light: B1 light
notes: as for B3
B6: humanized antibody No. 93 (antibody, human IgG1, kappa)
heavy: B2 heavy with K46E
light: B1 light
notes: human Ig kappa; also called L2-4/HA1
B7: humanized antibody No. 133 (antibody, human IgG2)
heavy: B1 heavy with K46E
light: B1 light
notes: as for B6
B8: humanized antibody No. 132 (antibody, human IgG2)
heavy: B1 heavy with V2I
light: B1 light
notes: human Ig kappa; also called L2-4/HA4
B9: humanized antibody No. 136 (antibody, human IgG2)
heavy: B1 heavy with Q62D, G63D, T65K
light: B1 light
notes: human Ig kappa; also called L2-4/HK2
B10: humanized antibody No. 71 (antibody, human IgG1, kappa)
heavy: B2 heavy with V2I
light: B1 light
notes: as for B8
B11: humanized antibody No. 73 (antibody, human IgG1, kappa)
heavy: B2 heavy with V2I, Q62D, G63D, T65K
light: B1 light
notes: as for B4

T5 sequence (P29317 24-537): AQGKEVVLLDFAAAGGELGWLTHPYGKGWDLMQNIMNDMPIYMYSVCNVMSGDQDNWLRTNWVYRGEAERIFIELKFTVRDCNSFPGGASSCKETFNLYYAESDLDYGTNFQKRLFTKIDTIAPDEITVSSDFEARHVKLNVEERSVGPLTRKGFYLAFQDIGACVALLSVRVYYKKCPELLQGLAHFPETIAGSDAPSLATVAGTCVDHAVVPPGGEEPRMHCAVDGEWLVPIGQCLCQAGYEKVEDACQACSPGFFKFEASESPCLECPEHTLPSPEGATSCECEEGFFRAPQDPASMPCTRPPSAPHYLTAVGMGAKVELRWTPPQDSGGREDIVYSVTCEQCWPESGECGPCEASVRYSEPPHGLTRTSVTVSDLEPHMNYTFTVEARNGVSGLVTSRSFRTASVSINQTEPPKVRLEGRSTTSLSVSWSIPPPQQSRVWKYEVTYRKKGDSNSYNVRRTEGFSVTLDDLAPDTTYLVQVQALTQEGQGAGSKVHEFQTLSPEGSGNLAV

The first test addresses T5, human EphA2 extracellular region-SEAP-His protein (human, UniProt P29317 24-537).
T5 construct: extracellular domain; also called hEphA2-SEAP-His
As to the kind of experiment: ELISA. (An ELISA detects its analyte on a solid surface through an enzyme-linked reagent.)
Consider B1, for which the “A450 as % of hEphA4-SEAP-His” value was 5%.
The same measure, in the same setting: the value for B2 was 6.4%; that for B3 was 5%.
The same measure, in the same setting: the result for B4 reads 5.4%; that for B5, 4.2%; that for B6, 5%.
Same read-out and setting: the result for B7 reads 4.7%.
Take B8: the “A450 as % of hEphA4-SEAP-His” value was determined as 4.8%.
For the molecule B9, the “A450 as % of hEphA4-SEAP-His” value was found to be 5.1%.
Still for that read-out and setting: the value for B10 was 5.7%.
With B11, the “A450 as % of hEphA4-SEAP-His” value is 5.7%.

A further test concerns the target T1, human EphA6 extracellular …. As to the kind of experiment: ELISA.
With B1, the “A450 as % of hEphA4-SEAP-His” value was found to be 9.6%.
On to B2, for which the “A450 as % of hEphA4-SEAP-His” value amounted to 8.6%.
Turning to B3, the “A450 as % of hEphA4-SEAP-His” value came to 7%.
Consider B4, for which the “A450 as % of hEphA4-SEAP-His” value is 7.1%.
On the same count and under the same terms, the value for B5 was 7%.
Same read-out and setting: the result for B6 reads 7.1%.
Same read-out and setting: the value for B7 was 8.8%.
As for B8, the “A450 as % of hEphA4-SEAP-His” value came to 9.7%.
On to B9, for which the “A450 as % of hEphA4-SEAP-His” value worked out at 7.2%.
Same read-out and setting: the value for B10 was 9.2%; that for B11 was 7.4%.

A further test addresses T2, human EphA8 extracellular …. As to the kind of experiment: ELISA.
For B1, the “A450 as % of hEphA4-SEAP-His” value came to 5.7%.
The same measure, in the same setting: the value for B2 was 7%; that for B3 was 5%.
As to B4, the “A450 as % of hEphA4-SEAP-His” value came to 5.9%.
Turning to B5, the “A450 as % of hEphA4-SEAP-His” value was found to be 4.4%.
The same measure, in the same setting: the result for B6 reads 5%; that for B7, 4.7%; that for B8, 4.7%.
Same read-out and setting: the value for B9 was 5.4%; that for B10 was 5.3%; that for B11 was 5.8%.

The next test addresses T3, human EphA10 extracellular …. Description: ELISA.
Turning to B1, the “A450 as % of hEphA4-SEAP-His” value came out at 5%.
As for B2, the “A450 as % of hEphA4-SEAP-His” value amounted to 6.4%.
For the molecule B3, the “A450 as % of hEphA4-SEAP-His” value is 5.1%.
In the case of B4, the “A450 as % of hEphA4-SEAP-His” value was determined as 5.6%.
Regarding B5, the “A450 as % of hEphA4-SEAP-His” value worked out at 4.5%.
On to B6, for which the “A450 as % of hEphA4-SEAP-His” value turned out to be 4.9%.
Same read-out and setting: the result for B7 reads 4.7%; that for B8, 4.7%; that for B9, 5.2%.
As to B10, the “A450 as % of hEphA4-SEAP-His” value was 5.3%.
The same measure, in the same setting: the value for B11 was 5.6%.

A further test addresses T4, human EphB2 extracellular …. As to the kind of experiment: ELISA.
As for B1, the “A450 as % of hEphA4-SEAP-His” value is 5.1%.
Take B2: the “A450 as % of hEphA4-SEAP-His” value amounted to 7%.
On to B3, for which the “A450 as % of hEphA4-SEAP-His” value was 5%.
On the same count and under the same terms, the value for B4 was 5.6%; that for B5 was 4.7%; that for B6 was 5%.
Same read-out and setting: the value for B7 was 4.6%; that for B8 was 4.7%.
Still for that read-out and setting: the value for B9 was 5.3%.
For B10, the “A450 as % of hEphA4-SEAP-His” value came out at 5.5%.
Still for that read-out and setting: the result for B11 reads 5.6%.
